Patent US20240117011A1 (US Dept. of Health and Human Services, published 2024)

Experiments:
[1] = biological target: full-length spike B.1.617.2 (SARS-CoV-2, UniProt P0DTC2 13-1273); assay: cell-based or functional assay
[2] = biological target: spike of variant B.1.1.345 on pseudotyped lentiviral particles; assay: cell-based or functional assay

B1: A19-46.1 (antibody, V domains shown)
VH: QVQLVESGGGVVQPGRSLRLSCAASGFTLSSYGMHWVRQAPGKGLEWVAVISYDGSNKYYVDSVKGRFTISRDNSKNTLYLQMNSLRAEDTAVYYCARGWAYWELLPDYYYGMDVWGQGTTVTVSS
VL: QTVVTQEPSFSVSPGGTVTLTCGLSSGSVSTAYFPSWYQQTPGQAPRTLIYGTNTRSSGVPDRFSGSILGNKAALTITGAQADDESDYYCVLYMGRGIVVFGGGTKLTVL
B1 was tested, and the “neutralization IC50” value [1] was greater than 10 µg/mL and the “pseudotyped virus neutralization IC50” value [2] was 0.095 µg/mL.
